Numbered stars: 1 amine (or outer) side, 2 acyl side, 3 side chain; on linkers, the order of the positions; unused ones are H or OH. Bridge positions count the residues as written; N and C are the ends. Side chains are listed from the residue outwards. Ends that are not written are not given here. * marks the point of attachment. C20 diacid = O=C(O)CCCCCCCCCCCCCCCCCCC(=O)*; γGlu = O=C(O)[C@H](CCC(=O)[*:2])N[*:1]; AEEA = NCCOCCOCC(=O)O
T1: human calcitonin receptor (human, UniProt P30988 25-474)
T1 construct: whole, on cells; Used as cell membranes prepared from the transfected BHK cells (Assay VII), not as intact cells; also called hCTR; hCT
T1 sequence (looked up): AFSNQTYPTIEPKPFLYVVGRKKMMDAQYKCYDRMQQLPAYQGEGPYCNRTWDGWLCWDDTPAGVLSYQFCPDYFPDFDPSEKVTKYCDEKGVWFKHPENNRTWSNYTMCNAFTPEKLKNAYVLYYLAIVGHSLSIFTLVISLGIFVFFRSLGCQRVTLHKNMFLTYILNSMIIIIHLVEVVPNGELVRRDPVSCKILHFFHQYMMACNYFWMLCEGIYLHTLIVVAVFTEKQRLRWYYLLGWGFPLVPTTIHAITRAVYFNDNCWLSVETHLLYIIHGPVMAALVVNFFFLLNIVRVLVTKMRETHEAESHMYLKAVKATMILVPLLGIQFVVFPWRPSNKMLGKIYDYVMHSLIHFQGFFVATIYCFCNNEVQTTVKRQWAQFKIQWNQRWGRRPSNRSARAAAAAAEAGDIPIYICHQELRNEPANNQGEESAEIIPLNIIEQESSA


What follows are binders tested against T1, human calcitonin receptor (assay: SPA competition against 125I-calcitonin, membranes with human calcitonin receptor (Assay VII)).
Description: Membranes were prepared in the following way; the cells were rinsed with PBS and incubated with Versene for approximately 5 min before harvesting. The cells were flushed with PBS and the cell-suspension was centrifuged for 5 min at 1000 rpm. Cells were homogenized (Ultrathurrax) in a buffer containing 20 mM Na-HEPES and 10 mM EDTA (pH 7.4) and centrifuged at 20.000 rpm for 15 min. The resulting pellet was resuspended, homogenized and centrifuged (20.000 rpm, 15 min) in a buffer containing 20 mM Na-HEPES and 0.1 mM EDTA (pH 7.4, buffer 2). The resulting pellet was resuspended in buffer 2 and protein concentration was measured (BCA protein Assay, Pierce). The homogenate was kept cold during the whole procedure. The membranes were kept at −80° C. until use. Assay was performed in a 384 well Optiplate (PerkinElmer) in a total volume of 40 ul. Membranes were mixed with SPA beads. Final concentration of membranes 35 ng/μL final and Final concentration of SPA beads was 0.05 mg/well. Test-compounds were dissolved in DMSO and further diluted in assay buffer (50 mM Hepes, pH 7.4, 1 mM CaCl2, 5 mM MgCl₂, 0.1% OA and 0.02% Tween20). […] The final mixture was incubated for 120 min with shaking at 400 rpm at 25° C. prior to centrifugation (1500 rpm, 10 min). Samples were analyzed on TopCounter™ (Packard). The […] was calculated using (one site binding competition analysis) GraphPad Prism5 as a measure of receptor affinity.

Row | Binder | IC50 [nM]
1 | {C20 diacid-γGlu}-KCNTATCATQRLAEFLRHSSPNFGAPLSSTNVGSNTY-NH2 (disulfide 2-7; SMILES CC(C)C[C@H](NC(=O)[C@H](CCCNC(=N)N)NC(=O)[C@H](CCC(N)=O)NC(=O)[C@@H](NC(=O)[C@H](C)NC(=O)[C@@H]1CSSC[C@H](NC(=O)[C@H](CCCCN)NC(=O)CC[C@H](NC(=O)CCCCCCCCCCCCCCCCCCC(=O)O)C(=O)O)C(=O)N[C@@H](CC(N)=O)C(=O)N[C@@H]([C@@H](C)O)C(=O)N[C@@H](C)C(=O)N[C@@H]([C@@H](C)O)C(=O)N1)[C@@H](C)O)C(=O)N[C@@H](C)C(=O)N[C@@H](CCC(=O)O)C(=O)N[C@@H](Cc1ccccc1)C(=O)N[C@@H](CC(C)C)C(=O)N[C@@H](CCCNC(=N)N)C(=O)N[C@@H](Cc1c[nH]cn1)C(=O)N[C@@H](CO)C(=O)N[C@@H](CO)C(=O)N1CCC[C@H]1C(=O)N[C@@H](CC(N)=O)C(=O)N[C@@H](Cc1ccccc1)C(=O)NCC(=O)N[C@@H](C)C(=O)N1CCC[C@H]1C(=O)N[C@@H](CC(C)C)C(=O)N[C@@H](CO)C(=O)N[C@@H](CO)C(=O)N[C@H](C(=O)N[C@@H](CC(N)=O)C(=O)N[C@H](C(=O)NCC(=O)N[C@@H](CO)C(=O)N[C@@H](CC(N)=O)C(=O)N[C@H](C(=O)N[C@@H](Cc1ccc(O)cc1)C(N)=O)[C@@H](C)O)C(C)C)[C@@H](C)O, also called compound 7) [N^α1-[(4S)-4-carboxy-4-(19-carboxynonadecanoylamino)butanoyl]-[Glu14,Arg17,Pro21,Pro26]-h-amylin] | 11.1
2 | {C20 diacid-γGlu}-KCNTATCATQRLAEFLRHSSPNFGAIPSSTNVGSRTY-NH2 (disulfide 2-7; SMILES CC[C@H](C)[C@H](NC(=O)[C@H](C)NC(=O)CNC(=O)[C@H](Cc1ccccc1)NC(=O)[C@H](CC(N)=O)NC(=O)[C@@H]1CCCN1C(=O)[C@H](CO)NC(=O)[C@H](CO)NC(=O)[C@H](Cc1c[nH]cn1)NC(=O)[C@H](CCCNC(=N)N)NC(=O)[C@H](CC(C)C)NC(=O)[C@H](Cc1ccccc1)NC(=O)[C@H](CCC(=O)O)NC(=O)[C@H](C)NC(=O)[C@H](CC(C)C)NC(=O)[C@H](CCCNC(=N)N)NC(=O)[C@H](CCC(N)=O)NC(=O)[C@@H](NC(=O)[C@H](C)NC(=O)[C@@H]1CSSC[C@H](NC(=O)[C@H](CCCCN)NC(=O)CC[C@H](NC(=O)CCCCCCCCCCCCCCCCCCC(=O)O)C(=O)O)C(=O)N[C@@H](CC(N)=O)C(=O)N[C@@H]([C@@H](C)O)C(=O)N[C@@H](C)C(=O)N[C@@H]([C@@H](C)O)C(=O)N1)[C@@H](C)O)C(=O)N1CCC[C@H]1C(=O)N[C@@H](CO)C(=O)N[C@@H](CO)C(=O)N[C@H](C(=O)N[C@@H](CC(N)=O)C(=O)N[C@H](C(=O)NCC(=O)N[C@@H](CO)C(=O)N[C@@H](CCCNC(=N)N)C(=O)N[C@H](C(=O)N[C@@H](Cc1ccc(O)cc1)C(N)=O)[C@@H](C)O)C(C)C)[C@@H](C)O, also called compound 16) | 17.1
3 | K([AEEA-γGlu-C20 diacid])CNTATCATQRLANFLRHSSPNFGAIPSSTNVGSETY-NH2 (disulfide 2-7; N-terminus assumed; SMILES CC[C@H](C)[C@H](NC(=O)[C@H](C)NC(=O)CNC(=O)[C@H](Cc1ccccc1)NC(=O)[C@H](CC(N)=O)NC(=O)[C@@H]1CCCN1C(=O)[C@H](CO)NC(=O)[C@H](CO)NC(=O)[C@H](Cc1c[nH]cn1)NC(=O)[C@H](CCCNC(=N)N)NC(=O)[C@H](CC(C)C)NC(=O)[C@H](Cc1ccccc1)NC(=O)[C@H](CC(N)=O)NC(=O)[C@H](C)NC(=O)[C@H](CC(C)C)NC(=O)[C@H](CCCNC(=N)N)NC(=O)[C@H](CCC(N)=O)NC(=O)[C@@H](NC(=O)[C@H](C)NC(=O)[C@@H]1CSSC[C@H](NC(=O)[C@@H](N)CCCCNC(=O)COCCOCCNC(=O)CC[C@H](NC(=O)CCCCCCCCCCCCCCCCCCC(=O)O)C(=O)O)C(=O)N[C@@H](CC(N)=O)C(=O)N[C@@H]([C@@H](C)O)C(=O)N[C@@H](C)C(=O)N[C@@H]([C@@H](C)O)C(=O)N1)[C@@H](C)O)C(=O)N1CCC[C@H]1C(=O)N[C@@H](CO)C(=O)N[C@@H](CO)C(=O)N[C@H](C(=O)N[C@@H](CC(N)=O)C(=O)N[C@H](C(=O)NCC(=O)N[C@@H](CO)C(=O)N[C@@H](CCC(=O)O)C(=O)N[C@H](C(=O)N[C@@H](Cc1ccc(O)cc1)C(N)=O)[C@@H](C)O)C(C)C)[C@@H](C)O, also called compound 26) | 25.3
4 | K([AEEA-AEEA-γGlu-C20 diacid])CNTATCATQRLANFLRHSSPNFGAIPSSTNVGSETY-NH2 (disulfide 2-7; N-terminus assumed; SMILES CC[C@H](C)[C@H](NC(=O)[C@H](C)NC(=O)CNC(=O)[C@H](Cc1ccccc1)NC(=O)[C@H](CC(N)=O)NC(=O)[C@@H]1CCCN1C(=O)[C@H](CO)NC(=O)[C@H](CO)NC(=O)[C@H](Cc1c[nH]cn1)NC(=O)[C@H](CCCNC(=N)N)NC(=O)[C@H](CC(C)C)NC(=O)[C@H](Cc1ccccc1)NC(=O)[C@H](CC(N)=O)NC(=O)[C@H](C)NC(=O)[C@H](CC(C)C)NC(=O)[C@H](CCCNC(=N)N)NC(=O)[C@H](CCC(N)=O)NC(=O)[C@@H](NC(=O)[C@H](C)NC(=O)[C@@H]1CSSC[C@H](NC(=O)[C@@H](N)CCCCNC(=O)COCCOCCNC(=O)COCCOCCNC(=O)CC[C@H](NC(=O)CCCCCCCCCCCCCCCCCCC(=O)O)C(=O)O)C(=O)N[C@@H](CC(N)=O)C(=O)N[C@@H]([C@@H](C)O)C(=O)N[C@@H](C)C(=O)N[C@@H]([C@@H](C)O)C(=O)N1)[C@@H](C)O)C(=O)N1CCC[C@H]1C(=O)N[C@@H](CO)C(=O)N[C@@H](CO)C(=O)N[C@H](C(=O)N[C@@H](CC(N)=O)C(=O)N[C@H](C(=O)NCC(=O)N[C@@H](CO)C(=O)N[C@@H](CCC(=O)O)C(=O)N[C@H](C(=O)N[C@@H](Cc1ccc(O)cc1)C(N)=O)[C@@H](C)O)C(C)C)[C@@H](C)O, also called compound 25) | 43.4

Now from value to binder:

Row | IC50 [nM] | Binder
5 | 3.26 | {C20 diacid-γGlu}-KCNTATCATQRLAEFLRHSSPNFGAIPSSTPVGSNTY-NH2 (disulfide 2-7; SMILES CC[C@H](C)[C@H](NC(=O)[C@H](C)NC(=O)CNC(=O)[C@H](Cc1ccccc1)NC(=O)[C@H](CC(N)=O)NC(=O)[C@@H]1CCCN1C(=O)[C@H](CO)NC(=O)[C@H](CO)NC(=O)[C@H](Cc1c[nH]cn1)NC(=O)[C@H](CCCNC(=N)N)NC(=O)[C@H](CC(C)C)NC(=O)[C@H](Cc1ccccc1)NC(=O)[C@H](CCC(=O)O)NC(=O)[C@H](C)NC(=O)[C@H](CC(C)C)NC(=O)[C@H](CCCNC(=N)N)NC(=O)[C@H](CCC(N)=O)NC(=O)[C@@H](NC(=O)[C@H](C)NC(=O)[C@@H]1CSSC[C@H](NC(=O)[C@H](CCCCN)NC(=O)CC[C@H](NC(=O)CCCCCCCCCCCCCCCCCCC(=O)O)C(=O)O)C(=O)N[C@@H](CC(N)=O)C(=O)N[C@@H]([C@@H](C)O)C(=O)N[C@@H](C)C(=O)N[C@@H]([C@@H](C)O)C(=O)N1)[C@@H](C)O)C(=O)N1CCC[C@H]1C(=O)N[C@@H](CO)C(=O)N[C@@H](CO)C(=O)N[C@H](C(=O)N1CCC[C@H]1C(=O)N[C@H](C(=O)NCC(=O)N[C@@H](CO)C(=O)N[C@@H](CC(N)=O)C(=O)N[C@H](C(=O)N[C@@H](Cc1ccc(O)cc1)C(N)=O)[C@@H](C)O)C(C)C)[C@@H](C)O, also called compound 31)
6 | 21.6 | {C20 diacid-γGlu}-KCNTATCATQRLAHFLRHSSPNFGAIPSSTNVGSETY-NH2 (disulfide 2-7; SMILES CC[C@H](C)[C@H](NC(=O)[C@H](C)NC(=O)CNC(=O)[C@H](Cc1ccccc1)NC(=O)[C@H](CC(N)=O)NC(=O)[C@@H]1CCCN1C(=O)[C@H](CO)NC(=O)[C@H](CO)NC(=O)[C@H](Cc1c[nH]cn1)NC(=O)[C@H](CCCNC(=N)N)NC(=O)[C@H](CC(C)C)NC(=O)[C@H](Cc1ccccc1)NC(=O)[C@H](Cc1c[nH]cn1)NC(=O)[C@H](C)NC(=O)[C@H](CC(C)C)NC(=O)[C@H](CCCNC(=N)N)NC(=O)[C@H](CCC(N)=O)NC(=O)[C@@H](NC(=O)[C@H](C)NC(=O)[C@@H]1CSSC[C@H](NC(=O)[C@H](CCCCN)NC(=O)CC[C@H](NC(=O)CCCCCCCCCCCCCCCCCCC(=O)O)C(=O)O)C(=O)N[C@@H](CC(N)=O)C(=O)N[C@@H]([C@@H](C)O)C(=O)N[C@@H](C)C(=O)N[C@@H]([C@@H](C)O)C(=O)N1)[C@@H](C)O)C(=O)N1CCC[C@H]1C(=O)N[C@@H](CO)C(=O)N[C@@H](CO)C(=O)N[C@H](C(=O)N[C@@H](CC(N)=O)C(=O)N[C@H](C(=O)NCC(=O)N[C@@H](CO)C(=O)N[C@@H](CCC(=O)O)C(=O)N[C@H](C(=O)N[C@@H](Cc1ccc(O)cc1)C(N)=O)[C@@H](C)O)C(C)C)[C@@H](C)O, also called compound 30)

— patent publication US20140087995A1 (published 2014)
